Legend:
[1] = target: T1, Monomeric human CD38 with a c-terminal myc-myc-hexahistidine tag (hCD38.mmH) (human, UniProt P28907 43-300); test: SPR (Biacore, 25 C); group summary of Table 8
T1 construct: also called bsAb3305; not shown: C-terminal myc-myc-hexahistidine tag

[2] = target: T2, Dimeric human CD28 with a c-terminal mouse Fc tag (hCD28.mFc) (human); test: SPR (Biacore, 25 C); group summary of Table 9
T2 construct: also called bsAb2012; Human CD28 extracellular domain (N19-P152).mFc
Description: (§1) For CD28 kinetic determinations, SPR experiments were performed using a Biacore 3000 instrument at 25° C. Dimeric human CD28 with a c-terminal mouse Fc tag (hCD28.mFc, bsAb2012) were captured for 37 seconds at a flow rate of 8 uL/min on a CM5 anti-mouseFc-(GE)-coupled surface. Approximately 150 RU of hCD28.mFc were captured. […] Dissociation was measured for 10 minutes. The KD and t_{1/2} were calculated by fitting the double-referenced sensorgrams to a 1:1 binding model.

[3] = target: T3, human CD38 on target cells (HEK293/hCD20/hCD38, MOLP8, NALM-6, NALM-6/hPD-L1) (human, UniProt P28907 1-300); test: cell-based or functional assay
[4] = target: T1, Monomeric human CD38 with a c-terminal …; test: SPR (Biacore 3000, 25 C); bsAb captured on anti-human Fc, hCD38.mmH injected; 1:1 fit
Description: For CD38 kinetic determinations, SPR experiments were performed using a Biacore 3000 instrument at 25° C. Antibodies were captured for 37 seconds at a flow rate of 8 uL/min on a CM5 anti-humanFc-(bsAb2567)-coupled surface. Approximately 230 RU of each antibody were captured. […] Dissociation was measured for 10 minutes. The KD and t½ were calculated by fitting the double-referenced sensorgrams to a 1:1 binding model.

[5] = target: T3, human CD38 on target cells …; test: cell-based or functional assay; remark: listed apart in the source
[6] = target: T3, human CD38 on target cells …; test: cell-based or functional assay; remark: listed apart in the source
[7] = target: T2, Dimeric human CD28 with a c-terminal …; test: SPR (Biacore 3000, 25 C); hCD28.mFc captured on anti-mouse Fc, bsAb injected; 1:1 fit
Description: as §1

[8] = target: T3, human CD38 on target cells …; test: cell-based or functional assay; remark: listed apart in the source

| Binder | IFNγ release EC50; T cells + HEK293/hCD20/hCD38, + TAAxCD3 (bsAb1979) [3] | IFNγ release EC50; T cells + MOLP8, + TAAxCD3 (bsAb5458) [3] | T-cell proliferation EC50; T cells + HEK293/hCD20/hCD38, + TAAxCD3 (bsAb1979) [5] | IL2 release EC50; T cells + HEK293/hCD20/hCD38, + TAAxCD3 (bsAb1979) [6] | IL2 release EC50; T cells + MOLP8, + IgG4^P isotype control [6] | IL2 release EC50; T cells + NALM-6, + Cemiplimab [8] | IL2 release EC50; T cells + NALM-6/hPD-L1, + Cemiplimab [8] | IL2 release EC50; T cells + NALM-6/hPD-L1, + IgG4^P [8] | also measured |
| --- | --- | --- | --- | --- | --- | --- | --- | --- | --- |
| bsAb6031 (bispecific antibody, human IgG4 S228P, kappa, also called anti-CD38×CD28 bispecific antibody) heavy 1: EVQLVESGGGLVQPGRSLRLSCAASGFTFDDYAMHWVRQAPGKGLEWVSGISWKSDNIGYADSVKGRFTISRDNAKNSLYLQMNSLRAEDTALYYCAKALGGWKFDYYYGMDVWGQGTTVTVSSASTKGPSVFPLAPCSRSTSESTAALGCLVKDYFPEPVTVSWNSGALTSGVHTFPAVLQSSGLYSLSSVVTVPSSSLGTKTYTCNVDHKPSNTKVDKRVESKYGPPCPPCPAPPVAGPSVFLFPPKPKDTLMISRTPEVTCVVVDVSQEDPEVQFNWYVDGVEVHNAKTKPREEQFNSTYRVVSVLTVLHQDWLNGKEYKCKVSNKGLPSSIEKTISKAKGQPREPQVYTLPPSQEEMTKNQVSLTCLVKGFYPSDIAVEWESNGQPENNYKTTPPVLDSDGSFFLYSRLTVDKSRWQEGNVFSCSVMHEALHNHYTQKSLSLSLGK heavy 2: EVQLVESGGGLVQPGGSLRLSCAASGFTFSRNNMHWVRQAPGKGLEYVSGISSNGGRTYYADSVKGRFTISRDNSKNTLYLQMGGLRAADMAVYFCTRDDELLSFDYWGQGTLVTVSSASTKGPSVFPLAPCSRSTSESTAALGCLVKDYFPEPVTVSWNSGALTSGVHTFPAVLQSSGLYSLSSVVTVPSSSLGTKTYTCNVDHKPSNTKVDKRVESKYGPPCPPCPAPPVAGPSVFLFPPKPKDTLMISRTPEVTCVVVDVSQEDPEVQFNWYVDGVEVHNAKTKPREEQFNSTYRVVSVLTVLHQDWLNGKEYKCKVSNKGLPSSIEKTISKAKGQPREPQVYTLPPSQEEMTKNQVSLTCLVKGFYPSDIAVEWESNGQPENNYKTTPPVLDSDGSFFLYSRLTVDKSRWQEGNVFSCSVMHEALHNRFTQKSLSLSPGK light: not shown | 294 pM | 748 pM | 143 pM | 199 pM | 653 pM | 2.44 nM | 4.39 nM | 2.64 nM | Kd [1]: < 10 nM; Kd [2]: < 26 nM; Kd [4]: 7.08 nM; koff [4]: 0.000748 s⁻¹; kon [4]: 106000 M⁻¹ s⁻¹; t½ [4]: 15.4 min; T-cell proliferation EC50; T cells + MOLP8, + IgG4^P isotype control [5]: 467 pM; IL2 release EC50; T cells + MOLP8, + TAAxCD3 (bsAb5458) [6]: 1.02 nM; Kd [7]: 25.9 nM; koff [7]: 0.00149 s⁻¹; kon [7]: 57400 M⁻¹ s⁻¹; t½ [7]: 7.8 min; IL2 release EC50; T cells + NALM-6, + IgG4^P [8]: 1.68 nM |
| bsAb7945 (bispecific antibody, human IgG4 S228P, kappa) heavy 1: QVQLVQSGAEVKKPGSSVKVSCKASGGPFRSSSFSWVRQAPGQGLEWMGGIIPILGKTNYAQKFQGRITIVTDESTTTVYMELSSLRSEDTAVFYCVRGSSLFDYWGQGTLVTVSSASTKGPSVFPLAPCSRSTSESTAALGCLVKDYFPEPVTVSWNSGALTSGVHTFPAVLQSSGLYSLSSVVTVPSSSLGTKTYTCNVDHKPSNTKVDKRVESKYGPPCPPCPAPPVAGPSVFLFPPKPKDTLMISRTPEVTCVVVDVSQEDPEVQFNWYVDGVEVHNAKTKPREEQFNSTYRVVSVLTVLHQDWLNGKEYKCKVSNKGLPSSIEKTISKAKGQPREPQVYTLPPSQEEMTKNQVSLTCLVKGFYPSDIAVEWESNGQPENNYKTTPPVLDSDGSFFLYSRLTVDKSRWQEGNVFSCSVMHEALHNHYTQKSLSLSLGK heavy 2: QVQLQESGPGLVKPSETLSLTCTVSGGSISSYYWSWIRQPPGKGLEWIGYIYYSGITHYNPSLKSRVTISVDTSKIQFSLKLSSVTAADTAVYYCARWGVRRDYYYYGMDVWGQGTTVTVSSASTKGPSVFPLAPCSRSTSESTAALGCLVKDYFPEPVTVSWNSGALTSGVHTFPAVLQSSGLYSLSSVVTVPSSSLGTKTYTCNVDHKPSNTKVDKRVESKYGPPCPPCPAPPVAGPSVFLFPPKPKDTLMISRTPEVTCVVVDVSQEDPEVQFNWYVDGVEVHNAKTKPREEQFNSTYRVVSVLTVLHQDWLNGKEYKCKVSNKGLPSSIEKTISKAKGQPREPQVYTLPPSQEEMTKNQVSLTCLVKGFYPSDIAVEWESNGQPENNYKTTPPVLDSDGSFFLYSRLTVDKSRWQEGNVFSCSVMHEALHNRFTQKSLSLSPGK light: not shown | 123 pM | 4.24 pM | 0.894 pM | 5.02 pM | 9.71 pM | 0.0981 nM | 0.143 nM | 0.169 nM | T-cell proliferation EC50; T cells + HEK293/hCD20/hCD38, + IgG4^P isotype control [5]: 45.6 nM; IL2 release EC50; T cells + HEK293/hCD20/hCD38, + IgG4^P isotype control [6]: 41.4 nM |

— patent US20220089766A1 (published 2022)
